{
  "source": "patent US20180265551A1",
  "about": "(GlaxoSmithKline, published 2018)",
  "proteins": {"B1": {"name": "gB-698 (CMV gB ectodomain residues 1-698 with fusion loop, furin site and C246S mutations, C-terminal 6-His tag) (other)", "chain": "VSSSSTRGTSATHSHHSSHTTSAAHSRSGSVSQRVTSSQTVSHGVNETIYNTTLKYGDVVGVNTTKYPYRVCSMAQGTDLIRFERNIVCTSMKPINEDLDEGIMVVYKRNIVAHTFKVRVYQKVLTFRRSYAYHRTTYLLGSNTEYVAPPMWEIHHINSHSQCYSSYSRVIAGTVFVAYHRDSYENKTMQLMPDDYSNTHSTRYVTVKDQWHSRGSTRLYRETSNLNCMVTITTARSKYPYHFFATSTGDVVDISPFYNGTNRNASYFGENADKFFIFPNYTIVSDFGRPNSALETHRLVAFLERADSVISWDIQDEKNVTCQLTFWEASERTIRSEAEDSYHFSSAKMTATFLSKKQEVNMSDSALDCVRDEAINKLQQIFNTSYNQTYEKYGNVSVFETTGGLVVFWQGIKQKSLVELERLANRSSLNLTHNSTKSSTDGNNATHLSNMESVHNLVYAQLQFTYDTLRGYINRALAQIAEAWCVDQRRTLEVFKELSKINPSAILSAIYNKPIAARFMGDVLGLASCVTINQTSVKVLRDMNVKESPGRCYSRPVVIFNFANSSYVQYGQLGEDNEILLGNHRTEECQLPSLKIFIAGNSAYEYVDYLFKRMIDLSSISTVDSMIALDIDPLENTDFRVLELYSQKELRSSNVFDLEEIMREFNSYKQRVKYVEHHHHHH", "notes": "Expressed in 293GnTI- cells; The trimer pairs into a dimeric trimer of six subunits"}},
  "biological_target": "the molecule itself",
  "assay": "size exclusion chromatography and negative stain EM (self-association of trimers)",
  "data": [
    {"protein": "B1", "values": [
      {"measurement": "binding result", "result": "binds"}
    ]}
  ]
}
